Assay results as given in the DeepSol protein solubility set.

Experiment: soluble on expression in E. coli; label from the status in PepcDB or PDB records

| Sequence | soluble on expression in E. coli |
| --- | --- |
| MLAVSGLARSTFFDHQRRLDKPDKYADLKEQITTIFHDSNATFGYRRIWRALRNNNTIVNKKVVQRLMREQGLVSKIRRKKYNSYRGTVSHIADNVLGRRFIQDAPNKVWVSDVTEFRVAGTKVYLSPVMDLFDRTILAHTLSTSPNTQLTSRSLADAIAMFSPGKGLIVHTDQGFQYQHASWRTLIKSVGGVQSMSRKGNCYDNAVMENFFGHLKSEMYYGASFTSVDELCQAIDEYILWYNTYRLQERFKGLAPMQYRNQTLAKTLTV | not soluble |
| MLCDSLPTASRTAAAILNLAQREDVTAEALAQLIQTDPALTGRILRFANAPAQGTRRPVASVIDAIDLVGLPAVRQFALSLSLIDAHREGRCEAFDYAAYWQKSLARAVALQSITAQASTVAPKEAFTLGLLADVGRLALATAWPEEYSECLRKADGEALIALERERFATDHDELTRMLLTDWGFPQVFIDALQLSQQDEIRDEGRTGRFARQLALAQHIADHRLAEEPRRAALSPLLRAEARRCGLGDEDLARLLADPPADWLDWTRTIGLPGDAPTGGAEPSRPPPQTDEKLHVLLADDDPIMLARLSRQLEADGHHVASRRDGETALAYALEHQPEMVITDWHMKPMNGLELCRALRESALGGNVYIVMLTASESEDALVEAFGAGIDDYVIKPPSVRVLKARIRAGQRIITLHKKLARERKEIERYSSELAAANRRLELMAHTDQLTGLPNRRYAMDRLEREWAQARTFDRPLSIMMLDLDWFKSINDSLGHDAGDQALVHAARVMRETVRTSDVVCRMGGEEFLIIIPDTAGPAAIQTAERVRSAVEQQQPAKLKLSRPLTASIGVADSTSAPSLKDLLLKADNALYQVKQNGRNGVRYAGLAAALEHHHHHH | soluble |
| MLDDTGERIIPKNMKPMNGMLLEHLARYYFSTPYASGRVLDIACGTGYGSVMVAKTRKTEVDQVLGVDFDADVIHYAKQNYYHPKVSFLVGDAMDPYLRNQIGTFDTILSFETIEHVKDDRLFIERMRQLLKKDGTLVLSTPFGQGRGKPSDEPFHYHQLTEEEFRSLFDSFSEKEVFYQRGVTIEPKRTNVHYAFGVAVCKKLEHHHHHH | soluble |
| MLEEIPSSVEADLMPNLDSNVSSDNGTSKRFRIQANAVEARSFFASLVKGTEYSVAIHPAVQGNITVNLSDVTLDEVLSVVQNMYGYDVMKSGKVIQVYPAGMRTVTIPVDYLQFKRSGRSLTSIVTGSVTSAGTSNSGGSSDSSDSSDSNNSNNGNDSSTTSTGGTRIETITESDFWPMLQQAVANLIGSGKGQSVVVTPQAGVITVRAFPDDIREVREFLGVSQERMQRQVILEAKILEVTLSDGYQQGINWSNLSASIGNSGSIIVNRPASALPPLDAIGTLLGGQTNVTISDGNFEAVLNFMSTQGDLNVLSSPRITAANNQKSVIKVGTDQYFVTELSSNAGNGENSNAVPEVELTPFFSGISLDVTPQIDNKGNVFLHVHPAVIEVTEEVKQLNLGGDFQNIQLPLAKSSIRESDSVIRAKDGDVVVIGGLMKQQNVEQVSKVPFLGDVPALGHLFRNTSNVTQKTELVILLKPTVVGVNSWQKELERSRDLLQEWFPDAQLEHHHHHH | soluble |
| MLEIKGLRARIVGTNTEVIRGLNLTVADGEVAAIMGQNGAGKSTLSYLLAGRDDYEVIDGDILYNGQSLLEMDPAERAAYGVFLAFQYPMEIPGVATMEFLKVAMNSQRKARGDQELKIPEFIKCVKEISSKLEINMDMLKRPLNVGFSGGEKKRAEILQMALLEPKLCILDETDSGLDIDALKIVADGVNKLRDPKRSFLVITHYQRLLNYIIPDTVHVLYKGRIIKSGDKSLALYLEQNGYADLIREAA | not soluble |
| MLEKGGIRVIDEKTLEIIVREVLTNLTSDKGTQNQQKTASSSLPKLDPKRDYPLAKNKPELAKSITGKTINEITLQAVREGKVLPDDLKISPETLLAQAEIAEAAGRKQLANNFRRAAELTKVPDKRILEIYNALRPYRSTKEELLAIADELDNAYGAKVCAAFVREAAEVYERRGRLKGME | not soluble |
| MLELFLKEEWTTEAKEILRPFGQKKLIGIQMGASNRSRQWFVERWIELAKRIIERDEEVVIVFVGSKNELEEISLVAQALPQDRVFISAGRLSLGAAAALIGELGLLFTPDTGPLHIAVALRVKTISLFAVANPKNSLPDYDQSLHRYIKVDRCCEPCVGKRCAYQKCMEAIGVDEVYEEYKKLQELEHHHHHH | soluble |
| MLELSESNIHLNANAIDKQQAIEMAVSALVQAGNVENGYLQGMLARELQTSTFLGNGIAIPHGTLDTRLMVKKTGVQVFQFPQGIEWGEGNIAYVVIGIAARSDEHLSLLRQLTHVLSDEDTAAKLAKITDVAEFCAILMGETIDPFEIPAANISLDVNTQSLLTLVAINAGQLQVQSAVENRFISEVINNAALPLGKGLWVTDSVVGNVKNALAFSRAKTIFSHNGKAVKGVITVSAVGDQINPTLVRLLDDDVQTTLLNGNSTEILTALLGSSSDVETQSVEGAVVGTFTIRNEHGLHARPSANLVNEVKKFTSKITMQNLTRESEVVSAKSLMKIVALGVTQGHRLRFVAEGEDAKQAIESLGKAIANGLGENVSAVPPSEPDTIEIMGDQIHTPAVTEDDNLPANAIEAVFVIKNEQGLHARPSAILVNEVKKYNASVAVQNLDRNSQLVSAKSLMKIVALGVVKGTRLRFVATGEEAQQAIDGIGAVIESGLGE | not soluble |
| MLETETGRYSDTLRSALVSLDGDNAWALSESWCGTIQWICPSPYRPHHGRKNWFLGIGRFTADEQEQSDAIRYETLRSSGPGGQHVNKTDSAVRATHLASGISVKVQSERSQHANKRLARLLIAWKLEQQQQENSAALKSQRRMFHHQIERGNPRRTFTGMAFIEGLEHHHHHH | not soluble |
| MLFDTHAHLNAEQYDTDLEEVIERAKAEKVERIVVVGFDRPTITRAMEMIEEYDFIYAAIGWHPVDAIDMTEEDLAWIKELSAHEKVVAIGEMGLDYHWDKSPKDIQKEVFRNQIALAKEVNLPIIIHNRDATEDVVTILKEEGAEAVGGIMHCFTGSAEVARECMKMNFYLSFGGPVTFKNAKKPKEVVKEIPNDRLLIETDCPFLTPHPFRGKRNEPSYVKYVAEQIAELKEMTFEEIASITTENAKRLFRINLEHHHHHH | not soluble |
| MLFKRYGDPISLLRTYRLCDLMEFIFYVQEVEQEEKIYNQWLHTQMTQSLKEFKDQQKYRPLRKNKAKSTTKEEQQKALDFASQFVKPRKEGEVS | not soluble |
| MLFSKETLKSFAQSKGISNIDDDALRVLSQDLEYRIKEVCQEGSKFMVGSKRTKLSIDDINYALTSRNVDPLFGYDPQESLVFRGLPSNVYYVPDEEIDLEEYLDRPLPKVPLRVSIQSHWLAIEGVQPQIPYNPILLEKPVAKKDTLGTYQEEAELKSQNKHMLTKELGMYFDKVIQAMESDEQTAMECLHNESGIQQLVPYFVHHFNEQIVKNIKNKEKLMTVVMVYSSLLKNKYIFVDPYLHQILPSLITCVIGKNVDDDVRKVAADVVKYVFSNFSSSYKTLAPRIINTLSKAWLDREKTESTQYGALFCLSILSKHVVETVIKPKADYYVREINNPRVVGLLKDILQSNGL | soluble |
| MLGIDLGSNTLRAVQMDEKLNKLKEYEFVIGAAKNLNQSGEISKEAIQRLKNTLSILAKEQDLSKARAVATAAFRKASNTNEIFAHLKKEFGIDFKLIDAKSEAKISVLGMQSGLRRLKIWGEFAYCDLGGASCELSFGKSFKSFDFGIISFYEKNYHSYYKSCISYKKLIKKYPKFIINIKDKKLKIHFLIANPYLKHLAFRAFDEVAMIKKELRSLGAKTVVLNSGVPTTLSALKQNISYEKYEATKVNGKKLCHKDFLNYAIKLFHMEEKKAIKEVGTMRKNYLSAGCLLFYALFDKHKLLVIDEGLREGVCLASMKNIKF | not soluble |
| MLGPPSREKWSSDFPRWFDWVIETAEVYDYGRYPVKGMGVWMPYGFQIRRRVLEVVRGLLDSTGHEEVLFPLLIPEHLLRRESEHIRGFEGEVYWVTHGGREELDVKLALRPTSETSITYMETFWIKSYRQLPKKYYQVVSIFRYETKATRPMIRLREVTTFKEAHTVHESFEDAERQVLEAIEVYKAIFDRLLIPYVISKRPEWDKFAGALYTIAFDTIMPDGRALQIGTVHHLGQSFTRAFDFRIQMRDERLDHPWQTSYGVSDRVVASLIAVHGDDRGLVIPPSVAPIQVVVIPITPGDEEKRGKVLTYTAKAAEALEKAGLRVHVDDREWERPGAKFYYWEAKGVPIRVEIGLREAEQDTLTIARRDTLEKTEVPLGEAGNRIRELMAQIESSMRERAKSFFGERLLRTESLEEARDWVEGRRGIAEIPWCGRESCGLEMEERVNGKVLGTPWPEEPVEEGKRCPLCGRPAVAWIRLAKTY | soluble |
| MLGVVPGIGESIQAYKVAKAAKNLQGMKKALDKAATVATAQGYVSKTKIKIGQTELRVTAATDKQLLKAIGEGRTRQVK | not soluble |
| MLHEIPKSEILKELKRIGAKRVLIQSPEGLRREAEELAGFLEENNIEVFLHGEINYGACDPADREAKLVGCDALIHLGHSYMKLPLEVPTIFVPAFARVSVVEALKENIGEIKKLGRKIIVTTTAQHIHQLKEAKEFLESEGFEVSIGRGDSRISWPGQVLGCNYSVAKVRGEGILFIGSGIFHPLGLAVATRKKVLAIDPYTKAFSWIDPERFIRKRWAQIAKAMDAKKFGVIVSIKKGQLRLAEAKRIVKLLKKHGREARLIVMNDVNYHKLEGFPFEAYVVVACPRVPLDDYGAWRKPVLTPKEVEILLGLREEYEFDEILGGPRESDEPFGISIHSTRLEHHHHHH | not soluble |
| MLIDDIDFADLYLQQLKLAHRTEKTPDHWDQRAEKMAENCASPTDSYLQQLIAKIDLQGAQTLFDMGCGPGTVSLALADKLTTVYGVDYSQGMLNVAARRAAALKADNVHWIQRAWEEDWSDLPRCDIAVASRSTLVADMRHAMSKLNNQARLRVYTTHLVSTSFVSPAIQRAAGREVIELPNYIFALNVLYQMGIYAHVDFIRGQNCQQDNSTWERFEQNVSWSLGALNDDERERLYHWYQQQDARALAPASRDWALIWWDSVPQEAL | not soluble |
| MLIKGLSDTLLENPLWQKTYLRSFMQFYSTNSLSWGQLSYEEGEIRNLHYGLIHSFQTSEIDTDSLPRILPANVPKQYTLCQAGDVAFADASEDTDEIGKAVEFIRTHKASVICGLHTIHGRDIKCKTLLGFKRVAFNSHYFHDQIKRLAQGTKVFSITSSNLSSCYIYIPDIVMQKSIVVLFEAYEEQLITNKRLLEQYEKQKRYLLQQMFILEHHHHHH | not soluble |
| MLIPSKLSRPVRLDHTVVRERLLAKLSGANNFRLALVTSPAGYGKTTLVSQWAAGKNELGWYSLDEGDNQQERFASYLIAAIQQATGGHCSTSEAMAQKRQYASLTSLFAQLFIELAQWHRPLYLVIDDYHLITNPVIHDAMRFFLRHQPENFTLVVLSRNLPQLGIANLRVRDQLLEIGSQQLAFNHQEAKQFFDRRLSSPIEAAESSRMCDDVAGWATALQLIALSARQNHTSAHHSARRLAGINASHLSDYLVDEVLDNVDVSTRHFLLKSAILRSMNDALIVRVTGEENGQMRLEEIERQGLFLQRMDDTGEWFSYHPLFGSFLRQRCQWELAAELPEIHRAAAESWMEQGFPSEAIHHALAAGDAQMLRDILLNHAWGLFNHSELALLEESLKALPWESLLENPRLVLLQAWLMQSQHRYSEVNTLLARAEQEIKGVMDGTLHAEFNALRAQVAINDGNPEEAERLAKLALDELPLAWFYSRIVATSVHGEVLHCKGDLSQSLSLMQQTEQMARHHDVWHYALWSLIQQSEIQFAQGFLQAAWETQERAFQLIKEQHLEQLPMHEFLVRIRAQLLWAWARLDEAEASARSGIAVLSTFQPQQQLQCLTLLVQCSLARGDLDNARSQLNRLENLLGNGRYHCDWISNADKVRVIYWQLTGDKKSAANWLRHTPKPAFANNHFLQGQWRNIARAQILLGEFEPAEIVLEELNENARSLRLMSDLNCNLLLLNQLYWQSGRKNDAQRVLLDALQLANRTGFISHFVIEGEAMAQQLRQLIQLNTLPEMEQHRAQRILREINQHHRHKFAHFDEGFVERLLNHPDVPELIRTSPLTQREWQVLGLIYSGYSNEQIAGELAVAATTIKTHIRNLYQKLGVAHRQDAVQHAQQLLKMMGYGV | not soluble |
